Measurements: patent publication US20150322474A1 (UNIVERSITY OF THE UNIVERSITY OF ABERDEEN, published 2015)
Changes are numbered by the printed parent chain. Numbers in names are those of the source.

B1: PatGmacH618A (inactive mutant of the PatG macrocyclase domain) (enzyme)
chain: GEDEIESAGVSASEVESSATKQKVALHPHDLDERIPGLADLHNQTLGDPQITIVIIDGDPDYTLSCFEGAEVSKVFPYWHEPAEPITPEDYAAFQSIRDQGLKGKEKEEALEAVIPDTKDRIVLNDAACHVTSTIVGQEHSPVFGIAPNCRVINMPQDAVIRGNYDDVMSPLNLARAIDLALELGANIIHCAFCRPTQTSEGEEILVQAIKKCQDNNVLIVSPTGNNSNESWCLPAVLPGTLAVGAAKVDGTPCHFSNWGGNNTKEGILAPGEEILGAQPCTEEPVRLTGTSMAAPVMTGISALLMSLQVQQGKPVDAEAVRTALLKTAIPCDPEVVEEPERCLRGFVNIPGAMKVLFGQ
B2: PatGmac K598D (protein)
chain: B1 chain with K107D, A127H
B3: PatGmac triple mutant R589D K594D K598D (protein)
chain: B1 chain with R98D, K103D, K107D, A127H
B4: PatGmac K594D (protein)
chain: B1 chain with K103D, A127H
B5: PatGmac wild-type (macrocyclase domain of PatG, residues 492-851) (protein)
chain: B1 chain with A127H
B6: PatGmacΔ1 (deletion of residues 578-608, the helix-loop-helix insertion motif) (protein)
chain: GEDEIESAGVSASEVESSATKQKVALHPHDLDERIPGLADLHNQTLGDPQITIVIIDGDPDYTLSCFEGAEVSKVFPYWHEPAEPITKDRIVLNDHACHVTSTIVGQEHSPVFGIAPNCRVINMPQDAVIRGNYDDVMSPLNLARAIDLALELGANIIHCAFCRPTQTSEGEEILVQAIKKCQDNNVLIVSPTGNNSNESWCLPAVLPGTLAVGAAKVDGTPCHFSNWGGNNTKEGILAPGEEILGAQPCTEEPVRLTGTSMAAPVMTGISALLMSLQVQQGKPVDAEAVRTALLKTAIPCDPEVVEEPERCLRGFVNIPGAMKVLFGQ
B7: PatGmacΔ2 (deletion of residues 578-614, the helix-loop-helix insertion and the N-terminal extension of α4) (protein)
chain: GEDEIESAGVSASEVESSATKQKVALHPHDLDERIPGLADLHNQTLGDPQITIVIIDGDPDYTLSCFEGAEVSKVFPYWHEPAEPILNDHACHVTSTIVGQEHSPVFGIAPNCRVINMPQDAVIRGNYDDVMSPLNLARAIDLALELGANIIHCAFCRPTQTSEGEEILVQAIKKCQDNNVLIVSPTGNNSNESWCLPAVLPGTLAVGAAKVDGTPCHFSNWGGNNTKEGILAPGEEILGAQPCTEEPVRLTGTSMAAPVMTGISALLMSLQVQQGKPVDAEAVRTALLKTAIPCDPEVVEEPERCLRGFVNIPGAMKVLFGQ

Molecular target: T1, VPAPIPFPAYDG peptide (substrate mimic, P8-P4')
T1 peptide: VPAPIPFPAYDG
Experiment: X-ray crystal structure of the complex, 2.63 Å (co-crystallised, then soaked in 7.5 mM peptide)

B1: binds.

Molecular target: T2, VGAGIGFPAYDG peptide substrate
T2 chain: VGAGIGFPAYDG
Experiment: not given

Point of comparison: B2, Cyclic ion count (%) (M + H = 699) 0%. Against it:
- B3 — the same, 0%
- B4 — higher, 29%
- B5 — higher, 100%
- B6 — the same, 0%
- B7 — the same, 0%

Point of comparison: B5, Linear ion count (%) (M + H = 717) 0%. Against it:
- B2 — higher, 100%
- B3 — higher, 6%
- B4 — higher, 71%
- B6 — higher, 92%
- B7 — higher, > 99%

Point of comparison: B5, Unprocessed ion count (%) (M + H = 1123) 0%. Against it:
- B2 — the same, 0%
- B3 — higher, 94%
- B4 — the same, 0%
- B6 — higher, 8%
- B7 — not separable, < 1%

Molecular target: T3, VGAGIGFPAYRG peptide substrate (modified recognition sequence, Asp to Arg)
T3 chain: VGAGIGFPAYRG
Experiment: not given

With B2 the “linear product, LC-MS” value was “PatGmac K598D produced cyclo[VGAGIGFP] with only 8% linear product, at a rate over an order of magnitude faster than wild-type PatGmac with VGAGIGFPAYDG”.

For B3, the “macrocyclization reaction, LC-MS” value was “reacted extremely slowly with the substrate giving equal amounts of macrocyclized and linear products”.
B4 was tested, and the “macrocyclization reaction, LC-MS” value was “reacted extremely slowly with the substrate giving equal amounts of macrocyclized and linear products”.
For B5, the “macrocyclization reaction, LC-MS” value was “reacted extremely slowly with the substrate giving equal amounts of macrocyclized and linear products”.
